Source: patent publication US10398755B2, “Clusterin pharmaceuticals and treatment methods using the same” (UNIVERSITY OF SOUTHERN CALIFORNIA, priority 2009, dated 2019)

Legend:
[1] = biological target: T1, catalytic domain of human MMP-9 (residue 112-445) (Homo sapiens, UniProt P14780); assay: MMP inhibition assay (FRET peptide substrate), recombinant MMP-9 catalytic domain; assay type: biochemical; conditions: CLU 50 μg/ml (0.63 μM), RT 0.3 h
T1 construct: The recombinant catalytic domain of human MMP-9 (residue 112-445) was purchased from ProtEra; purchased ProtEra
Method: Recombinant MMP-9 catalytic domain (A) or APMA-activated MMP-7 (B) was incubated with PBS, CLU (50 μg/ml or 0.63 μM), SB3-CT (2 μM), or BSA (50 μg/ml), and MMP FRET substrate at RT for 0.3 h. RFU in PBS samples was considered 100%. Each reaction was performed in triplicate. Standard errors were depicted as a bar in each graph. MMPs were mixed with CLD in TSCB buffer, 50 mM Tris-HCI, pH, 7.5, 150 mM NaCl, 5 mM CaCl2, 0.002% Brij35 (or otherwise indicated concentration) 30 min prior to substrate addition, and incubated for 3 h at RT in the presence or absence of 0.02 mM p-aminophenylmercuric acetate (APMA). MMP activity was measured using a 5-FAM/QXL520 fluorescence resonance energy transfer (FRET) peptide as a substrate (EXlEm=490 nm/520 nm) (AnaSpec, Fremont, Calif.), according to the manufacturer's protocol. Relative fluorescence unit (RFU) was obtained by subtracting the values of APMA- or enzyme-omitted reactions from those of test samples, and then considering the fluorescence unit of a PBS (vehicle) sample as 100%. Enzyme reactions were performed in black 96-well plate, containing combinations of 10 ng, 5 ng, 5 ng, 10 ng, 2.5 μg, 2.5 μg of MMP-2, MMP-7, catalytic domain of MMP-9, MMP-9, CCLU, and/or BSA, respectively, in 50 μl reaction volume. As MMP substrates (0.4 μM), 520 MMP FRET substrate […] […] Fluorescence was monitored using a Victor^3TM V multilabel counter (PerkinElmer). […]

MMP-2 = biological target: T2, MMP-2 (Mus musculus, UniProt P33434); assay: In vitro protein binding assay (CLU-His pull-down, gelatin zymography), MMP-2; conditions: 150 mM NaCl binding buffer
T2 construct: purchased R&D Systems
Method: A mixture of MMP-2, MMP-9, and C-terminal truncated MMP-9 (9-ΔC) was incubated with His-tagged CLU, used in a pull-down assay and resolved on a gelatin zymography gel. The input and bound samples were loaded in a series of dilution.
Next, we tested the interaction of secreted CLU using mouse recombinant proteins. We used purified recombinant proteins of MMP-2, MMP-9, and CLU that were secreted from a mouse myeloma cell line (NSO). All of the proteins were purchased from R&D Systems. A mixture of MMP-2, MMP-9, and C-terminal truncated MMP-9 (9-ΔC) was incubated with His-tagged CLU, and subjected to the pull-down assay, using 150 mM NaCl-containing binding buffer and anti-His tag antibody resins. Portions of the input samples (Input) and proteins bound to the antibody (Bound) were resolved on the gelatin zymography gel.
The recombinant CLU contains a (His)6-Tag at the C-terminus of the protein, which was used for pull-down experiments with anti-His tag antibody beads. It was previously reported that CLU also binds to MT6-MMP/mmp-25 and that the hemopexin domain in the MMP C-terminal region is required for their interaction (Matsuda et al., 2003). To use as an internal control for the binding experiment, we removed part of MMP-9 (MMP-9-ΔC) by promoting self-processing by APMA (4-aminophenylmercuric acetate) treatment. […]

T2 sequence (P33434 110-662): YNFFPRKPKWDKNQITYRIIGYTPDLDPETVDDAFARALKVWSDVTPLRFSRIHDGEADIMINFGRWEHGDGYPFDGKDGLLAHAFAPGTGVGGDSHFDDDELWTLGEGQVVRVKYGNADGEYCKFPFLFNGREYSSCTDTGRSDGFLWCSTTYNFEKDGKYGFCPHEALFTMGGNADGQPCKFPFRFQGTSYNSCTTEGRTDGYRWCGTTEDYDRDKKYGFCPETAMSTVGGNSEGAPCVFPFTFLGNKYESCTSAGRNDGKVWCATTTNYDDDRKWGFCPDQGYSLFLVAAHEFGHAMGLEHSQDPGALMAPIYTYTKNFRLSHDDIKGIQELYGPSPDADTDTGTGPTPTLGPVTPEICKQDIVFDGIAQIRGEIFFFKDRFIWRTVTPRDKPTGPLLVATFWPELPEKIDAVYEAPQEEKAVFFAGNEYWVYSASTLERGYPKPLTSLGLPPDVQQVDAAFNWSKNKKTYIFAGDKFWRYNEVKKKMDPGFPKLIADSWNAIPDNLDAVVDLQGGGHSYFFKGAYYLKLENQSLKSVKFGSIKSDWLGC
T1 sequence (P14780 112-445): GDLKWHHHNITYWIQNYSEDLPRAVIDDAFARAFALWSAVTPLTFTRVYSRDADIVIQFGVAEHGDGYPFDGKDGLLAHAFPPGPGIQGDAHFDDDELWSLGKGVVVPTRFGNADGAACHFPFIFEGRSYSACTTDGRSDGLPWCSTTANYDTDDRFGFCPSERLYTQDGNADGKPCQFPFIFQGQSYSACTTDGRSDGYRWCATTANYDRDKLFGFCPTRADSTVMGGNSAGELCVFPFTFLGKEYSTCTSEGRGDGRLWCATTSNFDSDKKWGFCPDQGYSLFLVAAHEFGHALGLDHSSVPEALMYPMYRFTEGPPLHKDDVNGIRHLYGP

inhibition of MMP-9 catalytic domain activity [1]: 59%
B1: CLU: secreted disulfide-linked heterodimeric glycoprotein (70-80 KD); assays used recombinant mouse CLU with C-terminal (His)6 (protein, UniProt Q06890 22-448, looked up)
Clusterin: EQEVSDNELQELSTQGSRYINKEIQNAVQGVKHIKTLIEKTNAERKSLLNSLEEAKKKKEDALEDTRDSEMKLKAFPEVCNETMMALWEECKPCLKHTCMKFYARVCRSGSGLVGQQLEEFLNQSSPFYFWMNGDRIDSLLESDRQQSQVLDAMQDSFARASGIIDTLFQDRFFARELHDPHYFSPIGFPHKRPHFLYPKSRLVRSLMSPSHYGPPSFHNMFQPFFEMIHQAQQAMDVQLHSPAFQFPDVDFLREGEDDRTVCKEIRRNSTGCLKMKGQCEKCQEILSVDCSTNNPAQANLRQELNDSLQVAERLTEQYKELLQSFQSKMLNTSSLLEQLNDQFNWVSQLANLTQGEDKYYLRVSTVTTHSSDSEVPSRVTEVVVKLFDSDPITVVLPEEVSKDNPKFMDTVAEKALQEYRRKSRAE
modifications: C-terminal His6 tag
binding of MMP-2 to His-tagged CLU (MMP-2): Though weaker than MMP-9, MMP-2 also had an affinity for CLU
